Results reported in patent publication US20230406950A1 (LYVGEN BIOPHARMA, published 2023).
Numbering of substitutions follows the chain as printed.

T1: human GITR expressed on cells (human, UniProt Q9Y5U5 26-241)
T1 construct: whole, on cells; also called TNFRSF18; CD357
T1 sequence (looked up): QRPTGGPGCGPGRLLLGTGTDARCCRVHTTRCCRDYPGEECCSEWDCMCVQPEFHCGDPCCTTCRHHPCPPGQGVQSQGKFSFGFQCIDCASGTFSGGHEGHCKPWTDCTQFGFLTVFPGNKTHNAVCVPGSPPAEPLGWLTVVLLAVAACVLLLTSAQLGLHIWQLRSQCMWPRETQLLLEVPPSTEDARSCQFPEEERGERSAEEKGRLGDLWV

B1: Ly346 (bispecific antibody, human IgG1, kappa)
heavy: QVQLVQSGAEVKKPGASVKVSCKASGYTFTDFWMSWVRQAPGQGLEWMGQIYPNTGTTHSNEKFKGRVTMTRDTSTSTVYMELSSLRSEDTAVYYCARSYHISTTPNWFAYWGQGTLVTVSSASTKGPSVFPLAPSSKSTSGGTAALGCLVKDYFPEPVTVSWNSGALTSGVHTFPAVLQSSGLYSLSSVVTVPSSSLGTQTYICNVNHKPSNTKVDKKVEPKSCDKTHTCPPCPAPELLGPSVFLFPPKPKDTLMISRTPEVTCVVVDVSHEDPEVKFNWYVDGVEVHNAKTKPREEQYNSTYRVVSVLTVLHQDWLNGKEYKCKVSNKALPAPIEKTISKAKGQPREPQVYTLPPSREEMTKNQVSLTCLVKGFYPSDIAVEWESNGQPENNYKTTPPVLDSDGSFFLYSKLTVDKSRWQQGNVFSCSVMHEALHNHYTQKSLSLSPGGGGGSGGGGSGGGGSGGGGSQVQLVQSGAEVKKPGASVKVSCKASGYTFAGFEMHWVRQAPGQGLEWMGAIDPKTGGTDYNQKFKDRVTMTRDTSISTAYMELSRLRSDDTAVYYCARDLGYFDVWGQGTLVTVSSGGGGSGGGGSGGGGSGGGGSDIQMTQSPSSLSASVGDRVTITCRASQDIRSNLNWYQQKPGGAVKLLIYYTSRLHSGVPSRFSGSGSGTDYTLTISSLQPEDFATYFCQQSEKLPRTFGGGTKVEIR
light: DIQMTQSPSSLSASVGDRVTITCKASQNVYKKLEWYQQKPGKVPKVLIYHTNILQTGVPSRFSGSGSGTDYTLTISSLQPEDVATYYCYQWNSGPTFGGGTKVEIKRTVAAPSVFIFPPSDEQLKSGTASVVCLLNNFYPREAKVQWKVDNALQSGNSQESVTEQDSKDSTYSLSSTLTLSKADYEKHKVYACEVTHQGLSSPVTKSFNRGEC
notes: Anti-PD-L1/CD137: Ly076 heavy chain fused to Ly1630 scFv (VH-VL); Ly076 light chain
B2: Ly299 (bispecific antibody, human IgG1, kappa)
heavy: QVQLVQSGAEVKKPGASVKVSCKASGYTFTDFWMSWVRQAPGQGLEWMGQIYPNTGTTHSNEKFKGRVTMTRDTSTSTVYMELSSLRSEDTAVYYCARSYHISTTPNWFAYWGQGTLVTVSSASTKGPSVFPLAPSSKSTSGGTAALGCLVKDYFPEPVTVSWNSGALTSGVHTFPAVLQSSGLYSLSSVVTVPSSSLGTQTYICNVNHKPSNTKVDKKVEPKSCDKTHTCPPCPAPELLGPSVFLFPPKPKDTLMISRTPEVTCVVVDVSHEDPEVKFNWYVDGVEVHNAKTKPREEQYNSTYRVVSVLTVLHQDWLNGKEYKCKVSNKALPAPIEKTISKAKGQPREPQVYTLPPSREEMTKNQVSLTCLVKGFYPSDIAVEWESNGQPENNYKTTPPVLDSDGSFFLYSKLTVDKSRWQQGNVFSCSVMHEALHNHYTQKSLSLSPGGGGGSGGGGSGGGGSGGGGSDIQMTQSPSSLSASVGDRVTITCRASQDIRSNLNWYQQKPGGAVKLLIYYTSRLHSGVPSRFSGSGSGTDYTLTISSLQPEDFATYFCQQSEKLPRTFGGGTKVEIRGGGGSGGGGSGGGGSGGGGSQVQLVQSGAEVKKPGASVKVSCKASGYTFAGFEMHWVRQAPGQGLEWMGAIDPKTGGTDYNQKFKDRVTMTRDTSISTAYMELSRLRSDDTAVYYCARDLGYFDVWGQGTLVTVSS
light: B1 light
notes: Anti-PD-L1/CD137: Ly076 heavy chain fused to Ly1630 scFv (VL-VH); Ly076 light chain
B3: Ly347 (bispecific antibody, human IgG1, kappa)
heavy: QVQLVQSGAEVKKPGASVKVSCKASGYTFTDFWMSWVRQAPGQGLEWMGQIYPNTGTTHSNEKFKGRVTMTRDTSTSTVYMELSSLRSEDTAVYYCARSYHISTTPNWFAYWGQGTLVTVSSASTKGPSVFPLAPSSKSTSGGTAALGCLVKDYFPEPVTVSWNSGALTSGVHTFPAVLQSSGLYSLSSVVTVPSSSLGTQTYICNVNHKPSNTKVDKKVEPKSCDKTHTCPPCPAPELLGPSVFLFPPKPKDTLMISRTPEVTCVVVDVSHEDPEVKFNWYVDGVEVHNAKTKPREEQYNSTYRVVSVLTVLHQDWLNGKEYKCKVSNKALPAPIEKTISKAKGQPREPQVYTLPPSREEMTKNQVSLTCLVKGFYPSDIAVEWESNGQPENNYKTTPPVLDSDGSFFLYSKLTVDKSRWQQGNVFSCSVMHEALHNHYTQKSLSLSPG
light: DIQMTQSPSSLSASVGDRVTITCKASQNVYKKLEWYQQKPGKVPKVLIYHTNILQTGVPSRFSGSGSGTDYTLTISSLQPEDVATYYCYQWNSGPTFGGGTKVEIKRTVAAPSVFIFPPSDEQLKSGTASVVCLLNNFYPREAKVQWKVDNALQSGNSQESVTEQDSKDSTYSLSSTLTLSKADYEKHKVYACEVTHQGLSSPVTKSFNRGECGGGGSGGGGSGGGGSGGGGSQVQLVQSGAEVKKPGASVKVSCKASGYTFAGFEMHWVRQAPGQGLEWMGAIDPKTGGTDYNQKFKDRVTMTRDTSISTAYMELSRLRSDDTAVYYCARDLGYFDVWGQGTLVTVSSGGGGSGGGGSGGGGSGGGGSDIQMTQSPSSLSASVGDRVTITCRASQDIRSNLNWYQQKPGGAVKLLIYYTSRLHSGVPSRFSGSGSGTDYTLTISSLQPEDFATYFCQQSEKLPRTFGGGTKVEIR
notes: Anti-PD-L1/CD137: Ly076 heavy chain; Ly076 light chain fused to Ly1630 scFv (VH-VL)
B4: Ly348 (bispecific antibody, human IgG1, kappa)
heavy: B3 heavy
light: DIQMTQSPSSLSASVGDRVTITCKASQNVYKKLEWYQQKPGKVPKVLIYHTNILQTGVPSRFSGSGSGTDYTLTISSLQPEDVATYYCYQWNSGPTFGGGTKVEIKRTVAAPSVFIFPPSDEQLKSGTASVVCLLNNFYPREAKVQWKVDNALQSGNSQESVTEQDSKDSTYSLSSTLTLSKADYEKHKVYACEVTHQGLSSPVTKSFNRGECGGGGSGGGGSGGGGSGGGGSDIQMTQSPSSLSASVGDRVTITCRASQDIRSNLNWYQQKPGGAVKLLIYYTSRLHSGVPSRFSGSGSGTDYTLTISSLQPEDFATYFCQQSEKLPRTFGGGTKVEIRGGGGSGGGGSGGGGSGGGGSQVQLVQSGAEVKKPGASVKVSCKASGYTFAGFEMHWVRQAPGQGLEWMGAIDPKTGGTDYNQKFKDRVTMTRDTSISTAYMELSRLRSDDTAVYYCARDLGYFDVWGQGTLVTVSS
notes: Anti-PD-L1/CD137: Ly076 heavy chain; Ly076 light chain fused to Ly1630 scFv (VL-VH)
B5: TM392 (antibody, human IgG4 S228P, kappa, V domains shown)
VH: QVQLKESGPGLVQPSETLSLTCNVSGFSLTSYNVHWVRQPPGKGLEWLGVIWSGVRTDYNSVLKSRLSIRWDSSKNQVFLKMNSLQSEDTATYYCARGTYDANYHDVMDAWGQGASVTVSS
VL: DTVLTQSPALAVSPGERVTISCRASKSVRTGMHWYQQKPGQQPKLLVYGASNLESGVPARFSGSGSGTDFTLTIDPVEADDIATYFCHQSWNHFTFGSGTKLEIKR
notes: Chimeric anti-GITR antibody; also called chimeric antibody TM392 (LYV392 with human constant regions)
B6: TM396 (antibody, human IgG4 S228P, kappa, V domains shown)
VH: B5 VH with N23T, S65P, R70S, W71R, Q77K, K81N, A102D
VL: B5 VL with V47I, A59V, I82T, H88Q
notes: Chimeric anti-GITR antibody from LYV396; also called chimeric antibody TM396 (IgG4)

molecular target: T2, ECD portion of human CD137 protein (mouse IgG2a Fc tag) (human, UniProt Q07011 24-186); experiment: bridging ELISA: human CD137 ECD (mouse IgG2a Fc tag) coated, antibody titrated, then human PD-L1 ECD (His tag), HRP anti-His detection; A450-A620
T2 construct: extracellular domain; also called recombinant human CD137; not shown: mouse IgG2a Fc tag
Protocol: (§1) Exemplary anti-PD-L1/CD137 bi-specific antibodies were analyzed by ELISA for their simultaneous binding to recombinant human PD-L1 and human CD137. Briefly, the ECD portion of human CD137 protein (mouse IgG2a Fc tag) was diluted and coated onto an ELISA plate with a volume of 100 μL/well by incubation at 4° C. overnight. The next day, the plate was blocked with PBST-BSA buffer, then serially diluted samples of anti-PD-L1/CD137 bi-specific antibodies were pipetted into appropriate wells at 50 μL/well, and the plate was incubated for 1 h followed by Washing. Human PD-L1 ECD fragment (His tag) was added into the plate at 50 μL/well. After 1-hour incubation at room temperature, HRP-conjugated anti-His tag antibody was added into the plate at 100 μL/well and […]. The plate was incubated for 1 hour at room temperature followed by washing. TMB substrate solution was added at 100 μL/well and the color development was stopped by adding 100 uL/well Stop Solution (2N H₂SO₄). Absorbance at 450 nm and 620 nm was read by Tecan F200 Pro plate reader. GraphPad 7.0, “[Agonist] vs. response—Variable slope (four parameters)” was used to plot the binding data and calculate binding EC50 values.

EC50 (read off the curve) [µg/mL]	Binder
~0.1	B1
~0.1	B2
~0.2	B3
~0.1	B4

molecular target: T3, Human PD-L1 ECD fragment (His tag) (human, UniProt Q9NZQ7 19-238); experiment: as above
T3 construct: extracellular domain; also called recombinant human PD-L1; not shown: His tag
Protocol: as §1

T3 sequence (Q9NZQ7 19-238): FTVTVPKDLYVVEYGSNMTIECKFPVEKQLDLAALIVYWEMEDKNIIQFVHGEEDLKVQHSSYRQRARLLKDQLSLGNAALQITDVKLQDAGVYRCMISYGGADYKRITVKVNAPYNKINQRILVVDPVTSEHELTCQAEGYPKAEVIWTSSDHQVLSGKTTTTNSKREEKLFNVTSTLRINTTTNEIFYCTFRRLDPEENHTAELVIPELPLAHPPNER

binding result	Binder
binds	B1
binds	B2
binds	B3
binds	B4

molecular target: T1, human GITR expressed on cells; experiment: flow cytometry (FACS), MFI, CHO cells expressing human GITR
Protocol: FACS analysis was performed to evaluate the binding properties of exemplary anti-GITR humanized antibodies. Briefly, CHO cells over-expressing human GITR were harvested using trypsin-EDTA partial digestion followed by centrifugation at 1000 g for 3 minutes. The cells were re-suspended in cold PBS-BSA (2%) at 2×10⁶/mL and aliquoted to 100 μL/tube. The anti-GITR humanized antibodies were diluted in PBS-BSA (final concentrations were 0.01, 0.1, 1 and 10 μg/mL) and 50 μL of each was added to the CHO-GITR cells. The cell solutions were mixed and incubated at 4° C. in the dark for 2 hours. The cells were then washed with PBS-BSA twice. Secondary antibody conjugates (goat F(ab′)2 anti-human IgG—Fc (PE), pre-adsorbed, Abcam #ab98596) at 1/500 dilution and 100 μL/well was added and the cells were mixed and incubated 4° C. in dark for 1 hour. The cells were then washed twice with PBS-BSA, followed by fixation in 2% PFA/PBS, and were then subjected to FACS analysis.
[0270] (b) Agonistic Activity for GITR

binding result	Binder
binds	B5
binds	B6

molecular target: T4, human PD-L1 expressed on cells (human, UniProt Q9NZQ7 19-290); experiment: flow cytometry (FACS), MFI, CHO cells expressing human PD-L1
T4 construct: whole, on cells; also called human PD-L1 expressed on CHO cells; Raji-PD-L1 cells
Protocol: Exemplary anti-PD-1/CD137 bi-specific antibodies were analyzed by FACS for their binding properties to human PD-1 and/or human CD137 expressed on CHO cells. Briefly, cultured cells were harvested, counted and cell viability was evaluated using the Trypan Blue exclusion method. Viable cells were then adjusted to 2×10⁶ cells per mL in PBS containing 2% BSA. 100 μL of this cell suspension were further aliquoted per well into a V-bottom 96-well plate. […] After incubation for 2 hours at 4° C., cells were centrifuged (3 min, 1000× g), washed with 250 μL/well BSA-containing FACS Stain Buffer, resuspended and incubated for an additional 1 hour at 4° C. with 100 μL/well fluorochrome-conjugated anti-IgG antibody for detection of the bisepecific antibody. Cells were then washed with 250 μL/well BSA-containing FACS Stain Buffer, resuspended in 100 μL/well FACS Stain Buffer, acquired and analyzed using a FACS machine. Binding of the bispecific antibodies to human PD-1 or human CD137 expressing CHO cells were evaluated and the mean fluorescence intensity is plotted in histograms or dot plots.
Exemplary anti-PD-L1/CD137 bi-specific antibodies were analyzed by FACS for their binding properties to human PD-L1 or human CD137 expressed on CHO cells, following the procedures disclosed in Examples 1 above.

T4 sequence (Q9NZQ7 19-290): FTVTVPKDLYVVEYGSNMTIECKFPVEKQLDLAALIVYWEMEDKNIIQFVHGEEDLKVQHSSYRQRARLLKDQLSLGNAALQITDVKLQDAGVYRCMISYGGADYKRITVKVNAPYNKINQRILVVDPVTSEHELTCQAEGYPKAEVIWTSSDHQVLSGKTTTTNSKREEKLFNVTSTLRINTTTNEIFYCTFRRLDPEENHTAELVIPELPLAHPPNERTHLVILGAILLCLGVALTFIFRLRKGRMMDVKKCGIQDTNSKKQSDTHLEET

binding result	Binder
binds	B1
binds	B2
binds	B3
binds	B4
